Legend:
[1] = target: T1, cynomolgus DKK-1 (SEQ ID NO: 30) (cynomolgus, UniProt O94907 32-265 (human entry), limits assumed); assay: KinExA solution equilibrium, 37 C, His-tagged DKK-1
T1 construct: also called His-tagged DKK-1
T1 chain: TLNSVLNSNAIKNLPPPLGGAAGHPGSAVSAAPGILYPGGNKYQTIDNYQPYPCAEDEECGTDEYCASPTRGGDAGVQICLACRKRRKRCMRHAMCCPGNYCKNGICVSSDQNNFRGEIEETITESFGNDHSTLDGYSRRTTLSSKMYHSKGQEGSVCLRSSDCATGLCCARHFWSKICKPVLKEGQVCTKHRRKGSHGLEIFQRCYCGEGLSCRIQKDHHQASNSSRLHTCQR
Method: (§1) To establish a binding equilibrium, a constant concentration of antibody is mixed with varying concentrations of His-tagged DKK-1 (SEQ ID NO:29, SEQ ID NO:30, SEQ ID NO:31, SEQ ID NO:32, or SEQ ID NO:33) (1 nM-1 pM range) in PBS (pH 7.4)+1 mg/mL bovine serum albumin (“BSA”) or buffer alone and incubated for several days at 37° C. Two sets of binding reactions are set up, one set at low concentration of antibody (3 pM) and one set at high concentration of antibody (30 or 50 pM).
(§2) After establishing equilibrium, a KinExA 3000 instrument (Sapidyne Inst. Inc.) is used to probe for the fraction of ‘free’ (unbound) antibody. Briefly, His-tagged DKK-1 is covalently coupled to NHS-activated Sepharose 4 Fast Flow beads (GE Healthcare) which are packed by the instrument to create a small column. The pre-equilibrated mixtures of antibody+His-tagged DKK-1 are passed over the beads to capture only free antibody. The amount of free antibody captured is proportional to the free concentration in the equilibrated samples, and is detected by injection of a fluorescently labeled secondary antibody. Data sets from low and high concentrations of antibody are fit globally using n-curve analysis in the KinExA software. This fitting returns a Kd value as well as the 95% confidence interval.

[2] = target: T2, rat Dkk-1 (SEQ ID NO: 31) (rat, UniProt O54908 32-272 (mouse entry), limits assumed); assay: as above
T2 construct: also called His-tagged DKK-1
T2 chain: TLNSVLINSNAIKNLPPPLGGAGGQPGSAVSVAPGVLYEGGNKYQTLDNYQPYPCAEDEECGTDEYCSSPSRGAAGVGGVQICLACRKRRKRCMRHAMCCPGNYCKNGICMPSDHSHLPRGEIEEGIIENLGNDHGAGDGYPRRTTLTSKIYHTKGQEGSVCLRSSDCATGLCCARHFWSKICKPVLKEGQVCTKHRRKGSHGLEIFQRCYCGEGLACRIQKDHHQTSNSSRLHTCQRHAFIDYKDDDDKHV
Method: as §1, §2

[3] = target: T3, human DKK-1 (SEQ ID NO: 29) (human, UniProt O94907 32-266); assay: as above
T3 construct: A tag is not mentioned for the C2C12 assay; also called His-tagged DKK-1; Dickkopf-1
T3 sequence: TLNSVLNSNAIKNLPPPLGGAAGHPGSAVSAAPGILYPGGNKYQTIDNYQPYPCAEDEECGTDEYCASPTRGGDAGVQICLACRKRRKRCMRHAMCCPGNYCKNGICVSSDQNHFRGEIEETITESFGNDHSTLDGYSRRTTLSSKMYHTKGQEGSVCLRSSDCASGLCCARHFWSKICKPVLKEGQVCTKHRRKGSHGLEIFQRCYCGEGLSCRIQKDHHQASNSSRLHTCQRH
Method: as §1, §2

[4] = target: T4, mouse DKK-1 (SEQ ID NO: 33) (mouse, UniProt O54908 32-272); assay: as above
T4 construct: also called His-tagged DKK-1; Murine
T4 sequence: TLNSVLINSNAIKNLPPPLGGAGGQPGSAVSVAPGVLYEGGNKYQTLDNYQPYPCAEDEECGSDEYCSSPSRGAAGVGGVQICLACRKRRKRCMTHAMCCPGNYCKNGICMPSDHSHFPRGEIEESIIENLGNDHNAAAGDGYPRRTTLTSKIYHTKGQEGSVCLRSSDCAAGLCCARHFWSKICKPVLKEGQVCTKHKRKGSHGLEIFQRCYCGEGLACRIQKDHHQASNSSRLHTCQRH
Method: as §1, §2

[5] = target: T5, rabbit DKK-1 (SEQ ID NO: 32) (rabbit, UniProt O94907 32-265 (human entry), limits assumed); assay: as above
T5 construct: also called His-tagged DKK-1
T5 chain: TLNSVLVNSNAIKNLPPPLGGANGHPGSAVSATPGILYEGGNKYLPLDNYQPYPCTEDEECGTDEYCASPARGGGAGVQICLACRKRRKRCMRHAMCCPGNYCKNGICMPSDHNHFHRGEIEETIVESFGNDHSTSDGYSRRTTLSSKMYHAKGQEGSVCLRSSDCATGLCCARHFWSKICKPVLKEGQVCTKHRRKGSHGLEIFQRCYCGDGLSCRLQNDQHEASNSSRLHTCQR
Method: as §1, §2

[6] = target: T1, cynomolgus DKK-1 (SEQ ID NO: 30); assay: cell-based or functional assay
[7] = target: T2, rat Dkk-1 (SEQ ID NO: 31); assay: cell-based or functional assay
[8] = target: T3, human DKK-1 (SEQ ID NO: 29); assay: cell-based or functional assay
[9] = target: T5, rabbit DKK-1 (SEQ ID NO: 32); assay: cell-based or functional assay

Kd [1]: 0.014 nM
Kd [2]: 8.4 pM
Kd [3]: 3.3 pM
Kd [4]: 7 pM
Kd [5]: 0.017 nM
EC50, block of DKK-1-mediated inhibition of alkaline phosphatase in C2C12 cells [6]: 6.4 nM
EC50, block of DKK-1-mediated inhibition of alkaline phosphatase in C2C12 cells [7]: 2.9 nM
EC50, block of DKK-1-mediated inhibition of alkaline phosphatase in C2C12 cells [8]: 9.8 nM
EC50, block of DKK-1-mediated inhibition of alkaline phosphatase in C2C12 cells [9]: 6 nM
B1: Antibody II (antibody, human IgG4 S228P, kappa, F234A L235A, V domains shown)
VH: EVQLVESGGGLVQPGGSLRLSCAASGFTFSSYTMSWVRQAPGKGLEWVATISGGGFGTYYPDSVKGRFTISRDNAKNSLYLQMNSLRAEDTAVYYCARPGYNNYYFDIWGQGTTVTVSS
VL: EIVLTQSPATLSLSPGERATLSCHASDSISNSLHWYQQKPGQAPRLLIYYARQSIQGIPARFSGSGSGTDFTLTISSLEPEDFAVYYCQQSESWPLHFGGGTKVEIKR
notes: also called human engineered DKK-1 antibody

Source: patent publication US20100260754A1 (Eli Lilly, published 2010)
